Here are results for one molecule from patent US20090104196A1 (UNIVERSITAETSKLINIKUM FREIBURG, published 2009).

This test deals with T1, LSD1 1-174 (N-terminus of LSD1), labelled (UniProt O60341 1-174).
T1 construct: Labelled LSD1 deletion mutant used in the GST pull-down; not shown: Flag tag of the CMX-Flag vector
Nature of the test: GST pull-down, labelled LSD1 mutant. The procedure: GST, GST-Nix1, GST-ROR[…], and GST ERβ-NTD proteins were used as control. (NTD; N-terminal domain, DBD; DNA-binding domain, LBD; ligand-binding domain).
GST pull-down assays were performed with equal amounts of GST or GST fusion proteins as described¹⁷ using buffer containing either 150 mM KCl, 0.15% NP40 (FIG. 1b) or 600 mM KCl, 0.3% NP40 (FIG. 7a). Pull-downs with sepharose coupled histone H3 tail were performed as described²⁷ in 20 mM Tris pH 8.5, 150 mM NaCl, 0.5% NP40.10% of the in vitro translated proteins were loaded as input.

B1: GST-AR-DBD (GST fused to the DNA-binding domain of the androgen receptor), bacterially expressed (other, UniProt P10275 560-632, looked up)
chain: CLICGDEASGCHYGALTCGSCKVFFKRAAEGKQKYLCASRNDCTIDKFRRKNCPSCRLRKCYEAGMTLGARKL
notes: also called GST-AR fusion protein; not shown: glutathione S-transferase (GST) fusion partner
As to B1, the binding result is “no binding”.
